Source: patent publication US20100167342

Test system: GlyExendin-4 (Glycine-extended Exendin-4, Exendin-4 precursor with C-terminal glycine)

Substance | N-terminal clipping of GlyExendin-4 (HPLC and LCMS of peptide expressed in STE13-disrupted clone D2) | (N-2) impurity of GlyExendin-4 (HPLC of peptide expressed in DAP2-disrupted Pichia clone)
Pichia pastoris homolog of Saccharomyces cerevisiae STE13 dipeptidyl peptidase | the expressed GlyExendin-4 when checked by HPLC and LCMS was not N-terminally clipped | –
Pichia pastoris homolog of Saccharomyces cerevisiae dipeptidyl peptidase DAP2 | – | This continued to show (N-2) impurity
